Measurements from US20200362046A1 (published 2020).
Substitutions are numbered along the chain they refer to. Each block holds one binder with its values, some of them ahead of it.

Key:
[1] = target: KIR-Fc (purified recombinant "target"-Fc protein); experiment: phage ELISA on purified target-Fc; signal over non-specific control (e.g., IgG1-Fc); average where several clones share the sequence
[2] = target: T1, PD-L1-Fc (purified recombinant "target"-Fc protein) (UniProt Q9NZQ7 19-238); experiment: phage ELISA on purified target-Fc; signal over non-specific control (e.g., IgG1-Fc)
T1 construct: also called B7-H1; not shown: Fc part of the fusion
T1 sequence (Q9NZQ7 19-238 limits assumed): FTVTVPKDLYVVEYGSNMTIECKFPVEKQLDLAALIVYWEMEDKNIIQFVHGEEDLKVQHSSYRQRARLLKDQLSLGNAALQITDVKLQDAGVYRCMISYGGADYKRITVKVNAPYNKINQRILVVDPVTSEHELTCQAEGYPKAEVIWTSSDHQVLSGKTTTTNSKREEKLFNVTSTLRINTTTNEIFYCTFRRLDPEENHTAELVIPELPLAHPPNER
Protocol: Selections were also performed using F1, F2, F3. C1 & C2 trinucleotide phosphoramidite libraries. In most cases, libraries were pooled prior to use in selection. By combining equal volumes of the individual libraries. Pool F (libraries F1, F2 and F3) and Pool C (libraries C1 and C2) were generated. These libraries were used in selections for DBDpp binders to 4-1BB/CD137 as well as a larger panel of purified recombinant “target”-Fc proteins, including CD47, CTLA4. DR5, KIR. LAG3, OX40, PD1, PD-L1 and TIM3. (Many of these targets are considered immuno-regulatory factors (Pardoll et al., Nat. Rev. Cancer 12:252-264 (2012)). After incubation of the target with the pools of DBDpp phage libraries, bound phage-target complexes were captured and separated from unbound phage with protein A beads (target proteins were Fc fusions). Alter three rounds of selection, rescued phage clones were screened by ELISA for binding to the selected target.
For each target, approximately 90 DBDpp phage clones were screened by ELISA for binding to the target protein and as well as a non-specific control (e.g., IgG1-Fc). […] In some instances, for the ELISA screening plate in which the majority of DBDpp clones were positive, the entire plate was sequenced.

[3] = target: KIR-Fc (purified recombinant "target"-Fc protein); experiment: as above

B2: SEQ ID NO 35 (designed binder)
chain: MGSWSEFYNRLDAIESRLLALGGSEAELALFEIQIARFEKVLQAYKGKGNPEVEALRGEARAIFAELYAYRHN
ELISA ratio [1]: 8.4

B3: SEQ ID NO 60 (designed binder)
chain: MGSWYEFTVRLEAIHERLKALGGSEAELAAFEKEIAAFESELQAYKGKGNPEVEILRDDAAFIRRFLQAYRHN
notes: also called DBDpp; library F3
ELISA ratio [2]: 17.3 ratio

B4: SEQ ID NO 61 (designed binder)
chain: B3 chain with T8D, V9D, E12N, E16D, K19Q, I55D
notes: also called DBDpp; library F3
ELISA ratio [2]: 12.2 ratio

Results, then the binder that gave them:

ELISA ratio [1]: 4.24
B1: SEQ ID NO 36 (designed binder)
chain: MGSWYEFYNRLYAIEIRLYALGGSEAELAAFEKEIAAFESELQAYKGKGNPEVERLRVRAAKIRVILQAYRHN

ELISA ratio [3]: 4.17
B5: SEQ ID NO 37 (designed binder)
chain: MGSWLWFKIFLAEIKYFLEALGGSEAELAAFDFEIHAFHVELFAYKGKGNPEVEVLREVAAEIRWDLQAYRHN
